Measured values: patent publication US20110135643A1 (BETH ISRAEL DEACONESS MEDICAL CENTER, published 2011)

Molecular target: T1, human HLA-A2.1 (HLA-A*0201) class I molecule on the surface of T2 cells (human)
T1 construct: whole, on cells; The b2m chain is added because surface class I carries it
Assay: MHC stabilization and dissociation assay on T2 cells, BB7.2 staining, flow cytometry
Experimental: Briefly, T2 cells were cultured for 6 hours in serum-free IMDM (ATCC) prior to the addition of candidate peptides at a concentration of 50 μg/250×10³ cells/ml and incubated overnight at 37° C. […] Cells were then washed three times with PBS and analyzed by flow cytometry. […] The relative binding affinity of a given peptide was calculated as MFI_{(peptide)}/MFI_{(negative peptide)}.
T2 cells were incubated overnight with 50 μg/ml of each candidate peptide at 37° C. in serum-free Iscove's Modified Dulbecco's Medium (IMDM). Cells were then incubated with Brefeldin A (Sigma, St. Louis, Mo.) at 10 μg/ml for 1 hour, washed, and incubated at 37° C. for 0, 2, 4 or 6 hours in the presence of Brefeldin A (50 ng/ml). Cells were then stained with BB7.2 mAb. For each time point, peptide-induced HLA-A2.1 expression was calculated as the difference of the mean fluorescence of peptide-loaded T2 cells and mean fluorescence of negative peptide-loaded T2 cells. The rate of dissociation is reflected by the loss of A2.1 expression over time.

Binding result, binds:
KLIFLDSRV (9-mer peptide of SIM2) [SIM2(241)]
TLDGFVFVV (9-mer peptide of SIM2) [SIM2(87)]
SLDLKLIFL (9-mer peptide of SIM2) [SIM2(237)]
YQIVGLVAV (9-mer peptide of SIM2) [SIM2(205)]
FLDSRVTEV (9-mer peptide of SIM2) [SIM2(244)]
